{
  "source": "patent US10543259",
  "proteins": {"B1": {"name": "recombinant wild-type human PAPP-A2 (pregnancy-associated plasma protein-A2) (protein)", "chain": "PPEESNQNGGEGSYREAETFNSQVGLPILYFSGRRERLLLRPEVLAEIPREAFTVEAWVKPEGGQNNPAIIAGVFDNCSHTVSDKGWALGIRSGKDKGKRDARFFFSLCTDRVKKATILISHSRYQPGTWTHVAATYDGRHMALYVDGTQVASSLDQSGPLNSPFMASCRSLLLGGDSSEDGHYFRGHLGTLVFWSTALPQSHFQHSSQHSSGEEEATDLVLTASFEPVNTEWVPFRDEKYPRLEVLQGFEPEPEILSPLQPPLCGQTVCDNVELISQYNGYWPLRGEKVIRYQVVNICDDEGLNPIVSEEQIRLQHEALNEAFSRYNISWQLSVHQVHNSTLRHRVVLVNCEPSKIGNDHCDPECEHPLTGYDGGDCRLQGRCYSWNRRDGLCHVECNNMLNDFDDGDCCDPQVADVRKTCFDPDSPKRAYMSVKELKEALQLNSTHFLNIYFASSVREDLAGAATWPWDKDAVTHLGGIVLSPAYYGMPGHTDTMIHEVGHVLGLYHVFKGVSERESCNDPCKETVPSMETGDLCADTAPTPKSELCREPEPTSDTCGFTRFPGAPFTNYMSYTDDNCTDNFTPNQVARMHCYLDLVYQQWTESRKPTPIPIPPMVIGQTNKSLTIHWLPPISGVVYDRASGSLCGACTEDGTFRQYVHTASSRRVCDSSGYWTPEEAVGPPDVDQPCEPSLQAWSPEVHLYHMNMTVPCPTEGCSLELLFQHPVQADTLTLWVTSFFMESSQVLFDTEILLENKESVHLGPLDTFCDIPLTIKLHVDGKVSGVKVYTFDERIEIDAALLTSQPHSPLCSGCRPVRYQVLRDPPFASGLPVVVTHSHRKFTDVEVTPGQMYQYQVLAEAGGELGEASPPLNHIHGAPYCGDGKVSERLGEECDDGDLVSGDGCSKVCELEEGFNCVGEPSLCYMYEGDGICEPFERKTSIVDCGIYTPKGYLDQWATRAYSSHEDKKKCPVSLVTGEPHSLICTSYHPDLPNHRPLTGWFPCVASENETQDDRSEQPEGSLKKEDEVWLKVCFNRPGEARAIFIFLTTDGLVPGEHQQPTVTLYLTDVRGSNHSLGTYGLSCQHNPLIINVTHHQNVLFHHTTSVLLNFSSPRVGISAVALRTSSRIGLSAPSNCISEDEGQNHQGQSCIHRPCGKQDSCPSLLLDHADVVNCTSIGPGLMKCAITCQRGFALQASSGQYIRPMQKEILLTCSSGHWDQNVSCLPVDCGVPDPSLVNYANFSCSEGTKFLKRCSISCVPPAKLQGLSPWLTCLEDGLWSLPEVYCKLECDAPPIILNANLLLPHCLQDNHDVGTICKYECKPGYYVAESAEGKVRNKLLKIQCLEGGIWEQGSCIPVVCEPPPPVFEGMYECTNGFSLDSQCVLNCNQEREKLPILCTKEGLWTQEFKLCENLQGECPPPPSELNSVEYKCEQGYGIGAVCSPLCVIPPSDPVMLPENITADTLEHWMEPVKVQSIVCTGRRQWHPDPVLVHCIQSCEPFQADGWCDTINNRAYCHYDGGDCCSSTLSSKKVIPFAADCDLDECTCRDPKAEENQ"}, "B2": {"name": "PAPP-A2(A1033V) (protein)", "chain": "B1 chain with A799V"}},
  "key": {"[1]": {"biological_target": "recombinant human IGFBP-5, 125I-labeled, P24593", "sequence (P24593 21-272)": "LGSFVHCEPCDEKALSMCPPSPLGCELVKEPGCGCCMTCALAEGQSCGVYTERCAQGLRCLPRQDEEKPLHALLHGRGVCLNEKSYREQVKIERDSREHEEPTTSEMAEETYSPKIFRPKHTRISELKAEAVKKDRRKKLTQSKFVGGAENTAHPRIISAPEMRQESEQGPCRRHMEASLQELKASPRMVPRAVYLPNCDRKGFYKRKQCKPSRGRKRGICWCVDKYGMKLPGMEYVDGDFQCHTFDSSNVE"}, "[2]": {"biological_target": "recombinant human IGFBP-3, 125I-labeled, P17936", "sequence (P17936 28-291)": "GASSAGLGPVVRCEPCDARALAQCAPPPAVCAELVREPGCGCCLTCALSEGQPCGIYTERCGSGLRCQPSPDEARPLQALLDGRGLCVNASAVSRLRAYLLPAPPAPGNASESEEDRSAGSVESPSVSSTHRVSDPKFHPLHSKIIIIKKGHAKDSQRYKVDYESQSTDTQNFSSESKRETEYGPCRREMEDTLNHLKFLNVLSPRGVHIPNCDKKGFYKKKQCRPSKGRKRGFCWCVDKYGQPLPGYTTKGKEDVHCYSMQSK"}, "[3]": {"biological_target": "T1, recombinant human IGFBP-4, 125I-labeled, P22692", "T1 chain": "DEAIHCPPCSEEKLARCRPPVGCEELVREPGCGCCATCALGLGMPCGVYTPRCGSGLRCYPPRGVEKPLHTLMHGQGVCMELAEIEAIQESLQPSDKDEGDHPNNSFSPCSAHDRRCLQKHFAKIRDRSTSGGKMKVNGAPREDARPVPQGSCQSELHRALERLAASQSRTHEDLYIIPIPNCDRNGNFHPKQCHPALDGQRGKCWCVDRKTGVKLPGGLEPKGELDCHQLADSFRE"}},
  "note": "Changes are numbered by the printed parent chain. In names and notes the source's numbering stands.",
  "data": [
    {"protein": "B1", "values": [
      {"measurement": "proteolytic cleavage of radiolabeled IGFBP (SDS-PAGE, autoradiography)", "setting": "[1]", "value": "media from cells transfected with WT PAPP-A2 cDNA completely cleaved these substrates"},
      {"measurement": "proteolytic cleavage of radiolabeled IGFBP (SDS-PAGE, autoradiography)", "setting": "[2]", "value": "media from cells transfected with WT PAPP-A2 cDNA completely cleaved these substrates"},
      {"measurement": "proteolytic cleavage of radiolabeled IGFBP (SDS-PAGE, autoradiography)", "setting": "[3]", "value": "none of the variants cleaved the PAPP-A substrate, IGFBP-4"}
    ]},
    {"protein": "B2", "values": [
      {"measurement": "proteolytic cleavage at equimolar concentrations of wild type and mutant (6 h reaction)", "setting": "[1]", "value": "at equimolar concentrations (FIG. 3C), it still showed no activity"},
      {"measurement": "proteolytic cleavage of radiolabeled IGFBP (SDS-PAGE, autoradiography)", "setting": "[1]", "value": "showed no proteolytic activity towards IGFBP-3 or -5"},
      {"measurement": "proteolytic cleavage at equimolar concentrations of wild type and mutant (6 h reaction)", "setting": "[2]", "value": "at equimolar concentrations (FIG. 3C), it still showed no activity"},
      {"measurement": "proteolytic cleavage of radiolabeled IGFBP (SDS-PAGE, autoradiography)", "setting": "[2]", "value": "showed no proteolytic activity towards IGFBP-3 or -5"},
      {"measurement": "proteolytic cleavage of radiolabeled IGFBP (SDS-PAGE, autoradiography)", "setting": "[3]", "value": "none of the variants cleaved the PAPP-A substrate, IGFBP-4"}
    ]}
  ]
}
